From PMC11667269 (Journal for Immunotherapy of Cancer, 2024)

Assays:
[1] = molecular target: CD19 expressed on K562 cells (K562-CD19) (Homo sapiens, UniProt P15391); test: flow cytometry on cells
[2] = molecular target: human CD79b (hCD79b) immobilised for surface plasmon resonance (Homo sapiens, UniProt P40259); test: SPR
Chain of human CD79b (hCD79b) immobilised for surface plasmon resonance (P40259 29-229): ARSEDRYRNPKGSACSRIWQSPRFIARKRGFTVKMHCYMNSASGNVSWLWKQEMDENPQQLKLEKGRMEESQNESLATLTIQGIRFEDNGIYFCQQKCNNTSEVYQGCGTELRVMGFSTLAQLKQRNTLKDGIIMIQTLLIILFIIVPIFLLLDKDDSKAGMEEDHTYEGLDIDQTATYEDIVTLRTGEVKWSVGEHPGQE

Chain of CD19 expressed on K562 cells (K562-CD19) (P15391 20-556): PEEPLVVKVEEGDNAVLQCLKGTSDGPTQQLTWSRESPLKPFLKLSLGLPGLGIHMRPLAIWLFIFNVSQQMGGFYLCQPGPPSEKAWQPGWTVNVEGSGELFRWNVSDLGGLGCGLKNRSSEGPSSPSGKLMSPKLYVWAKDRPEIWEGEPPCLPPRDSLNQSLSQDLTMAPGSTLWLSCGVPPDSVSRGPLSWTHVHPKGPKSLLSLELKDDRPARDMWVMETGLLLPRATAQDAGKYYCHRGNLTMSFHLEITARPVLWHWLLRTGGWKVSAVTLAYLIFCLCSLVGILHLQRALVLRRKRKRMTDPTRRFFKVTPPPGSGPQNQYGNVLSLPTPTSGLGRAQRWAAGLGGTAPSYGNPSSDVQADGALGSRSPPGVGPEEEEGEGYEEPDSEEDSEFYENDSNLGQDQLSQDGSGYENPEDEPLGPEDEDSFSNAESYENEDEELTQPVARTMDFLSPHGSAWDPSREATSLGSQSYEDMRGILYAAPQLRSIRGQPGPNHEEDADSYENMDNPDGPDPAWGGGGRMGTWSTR

binding result [1]: no binding
binding result [2]: binds
B1: CARLY2 monoclonal murine antibody against CD79b (mouse monoclonal IgG1 CD79b.1.50) (antibody, V domains shown)
VH: QVQLQQPGAELVRPGASVKLSCKASGYTFTTYWMNWVKQRPGQGLEWIGMIDPSDSETHYNQMFKDKATLTVDKSSTTAYMQLSSLTSEDSAVYYCARTLSYWGQGTLVTVSA
VL: not shown
